Measurements from US20250136677A1 (ZOETIS SERVICES, published 2025).
Where two headings read alike, the source gives them in different places.

B1: mouse:feline 11E12 chimera (antibody)
heavy: QVQLQQSGAELVKPGASVKLSCKASGYTFKYYDINWVRQRPEQGLEWIGWIFPGDGGTKYNETFKGKATLTTDKSSSTAYMQLSRLTSEDSAVYFCARGGTSVIRDAMDYWGQGTSVTVSSASTTAPSVFPLAPSCGTTSGATVALACLVLGYFPEPVTVSWNSGALTSGVHTFPAVLQASGLYSLSSMVTVPSSRWLSDTFTCNVAHPPSNTKVDKTVRKTDHPPGPKPCDCPKCPPPEAAGAPSIFIFPPKPKDTLSISRTPEVTCLVVDLGPDDSDVQITWFVDNTQVYTAKTSPREEQFNSTYRVVSVLPILHQDWLKGKEFKCKVNSKSLPSPIERTISKAKGQPHEPQVYVLPPAQEELSRNKVSVTCLIKSFHPPDIAVEWEITGQPEPENNYRTTPPQLDSDGTYFVYSKLSVDRSHWQRGNTYTCSVSHEALHSHHTQKSLTQSPGK
light: DIVLTQSPASLAVSLGQRATISCRASESVDNYGISFMHWYQQKPGQPPKLLIYRASNLESGIPARFSGSGSRTDFTLTINPVETDDVATYYCQQSNKDPLTFGAGTKLELKRSDAQPSVFLFQPSLDELHTGSASIVCILNDFYPKEVNVKWKVDGVVQNKGIQESTTEQNSKDSTYSLSSTLTMSSTEYQSHEKFSCEVTHKSLASTLVKSFQRSECQRE
notes: Mouse variable regions on feline IgG constant regions; made in HEK 293 cells
B2: Feline 11E12 1.2 (antibody, V domains shown)
VH: QVLLVQSGAEVKKPGASVKIFCKASGYSFTYYDINWLRQAPEQGLEWMGWIFPGDGGTKYNETFKGRLTLTADTSTNTVYMELSSLRSADTAMYYCARGGTSVIRDAMDYWGQGALVTVSS
VL: EVVLTQSSAFLSRTLKEKATITCRASESVDNYGISFMHWYQQKPNQAPKLLVKRASNLESGAPSRFSGSGSGTDFTLTISSPEPEDAATYYCQQSNKDPLTFGQGT
notes: Feline heavy and kappa constant regions; also called felinized 11E12 1.2
B3: ZTS-361 (antibody)
heavy: QVLLVQSGAEVRTPGASVKIFCKASGYSFTSYTIHWLRQAPAQGLEWMGNINPTSGYTENNQRFKDRLTLTADTSTNTAYMELSSLRSADTAMYYCARWGFKYDGEWSFDVWGAGTTVTVSSASTTAPSVFPLAPSCGTTSGATVALACLVLGYFPEPVTVSWNSGALTSGVHTFPAVLQASGLYSLSSMVTVPSSRWLSDTFTCNVAHPPSNTKVDKTVRKTDHPPGPKPCDCPKCPPPEAAGAPSIFIFPPKPKDTLSISRTPEVTCLVVDLGPDDSDVQITWFVDNTQVYTAKTSPREEQFNSTYRVVSVLPILHQDWLKGKEFKCKVNSKSLPSPIERTISKAKGQPHEPQVYVLPPAQEELSRNKVSVTCLIKSFHPPDIAVEWEITGQPEPENNYRTTPPQLDSDGTYFVYSKLSVDRSHWQRGNTYTCSVSHEALHSHHTQKSLTQSPGK
light: EIQMTQSPSSLSASPGDRVTITCRASQGISIWLSWYQQKPGNIPKVLINKASNLHIGVPSRFSGSGSGTDFTLTISSLEPEDAATYYCLQSQTYPLTFGGGTKLEIKRSDAQPSVFLFQPSLDELHTGSASIVCILNDFYPKEVNVKWKVDGVVQNKGIQESTTEQNSKDSTYSLSSTLTMSSTEYQSHEKFSCEVTHKSLASTLVKSFQRSECQRE
B4: ZTS-1505 (antibody)
heavy: QVLLVQSGAEVRTPGASVKIFCKASGYSFTSYTIHWLRQAPAQGLEWMGNINPTSGYTENNQRFKDRLTLTADTSTNTAYMELSSLRSADTAMYYCARWGFKYDGEWSFDVWGAGTTVTVSSASTTAPSVFPLAPSCGTTSGATVALACLVLGYFPEPVTVSWNSGALTSGVHTFPAVLQASGLYSLSSMVTVPSSRWLSDTFTCNVAHPPSNTKVDKTVRKTDHPPGPKPCDCPKCPPPEAAGAPSIFIFPPKPKDTLSISRTPEVTCLVVDLGPDDSDVQITWFVDNTQVYTAKTSPREEQFNSTYRVVSVLPILHQDWLKGKEFKCKVNSKSLPSPIERTISKAKGQPHEPQVYVLPPAQEELSRNKVSVTCLIKSFHPPDIAVEWEITGQPEPENNYRTTPPQLDSDGTYFVYSKLSVDRSHWQRGNTYTCSVSHEALHSHHTQKSLTQSPGK
light: EIQMTQSPSSLSASPGDRVTITCRASQGISIWLSWYQQKPGNIPKVLINKASNLHIGVPSRFSGSGSGTDFTLTISSLEPEDAATYYCLQSQTYPLTFGGGTKLEIKRSDAQPSVFLFQPSLDELHTGSASIVCILNDFYPKEVNVKWKVDGVVQNKGIQESTTEQNSKDSTYSLSSTLTMSSTEYQSHEKFSCEVTHKSLASTLVKSFQRSEC

Columns and labels:
[1] = molecular target: T1, canine IL-31 protein (Canine_IL31) (canine); assay: SPR (Biacore), IL-31 on chip, 1:1 fit
T1 chain: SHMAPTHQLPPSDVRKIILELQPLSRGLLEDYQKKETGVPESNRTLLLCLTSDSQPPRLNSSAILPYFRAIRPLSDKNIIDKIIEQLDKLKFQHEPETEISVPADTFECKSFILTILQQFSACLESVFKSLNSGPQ

[2] = molecular target: T2, mutant feline IL-31 11E12 protein (Feline_IL31_11E12_mutant) (feline); assay: indirect ELISA, feline IL-31 11E12 mutant coated
T2 construct: also called feline 11E12 mutant; 11E12 IL-31 mutant
T2 chain: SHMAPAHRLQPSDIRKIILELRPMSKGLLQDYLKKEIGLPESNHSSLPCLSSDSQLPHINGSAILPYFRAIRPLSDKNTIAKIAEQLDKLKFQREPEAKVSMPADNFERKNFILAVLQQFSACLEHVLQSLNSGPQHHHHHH
Source text: To determine the impact of mAbs 11E12 and 15H05 ability to bind these mutant forms of feline IL-31, an indirect ELISA was run using the mutants directly coated on to an immunoassay plate. […] When mutant 11E12 is used as a capture protein, binding of mAb 11E12 is highly attenuated and binding of mAb 15H05 is partially attenuated. […] The minor attenuation of mAb 15H05s binding to the 11E12 mutant is likely due to translational effects of the mutations from movement of the two front helices effecting the 15H05 binding site. […] Unlike the 11E12 mutant, the changes in the random coil recognized by mAb 15H05 (mutant 15H05) had no impact on mAb 11E12 binding further supporting the distinction between the two epitopes (FIG. 6C).

[3] = molecular target: T3, wildtype feline IL-31 protein (Feline_IL31_wildtype) (feline); assay: cell-based or functional assay
T3 chain: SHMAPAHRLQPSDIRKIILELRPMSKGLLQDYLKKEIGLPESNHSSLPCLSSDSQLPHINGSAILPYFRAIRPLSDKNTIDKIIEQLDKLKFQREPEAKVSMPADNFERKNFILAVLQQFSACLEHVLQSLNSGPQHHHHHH

[4] = molecular target: T3, wildtype feline IL-31 protein …; assay: SPR (Biacore), IL-31 on chip, 1:1 fit
In short: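 IL-31 was amine-coupled (NHS/EDC) to the chip at 5 μg/mL and quenched with ethanolamine, and candidate mAbs were flowed over it as analytes. Binding curves were fitted to a 1:1 model.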

[5] = molecular target: T3, wildtype feline IL-31 protein …; assay: SPR (Biacore), IL-31 on chip
Description: (§1) The affinity with which candidate mAbs bind canine and feline IL-31 was determined using surface plasmon resonance (SPR) on a Biacore system (Biocore Life Sciences (GE Healthcare), Uppsala, Sweden). To avoid affinity differences associated with differential surface preparation that can occur when immobilizing antibodies to surfaces; a strategy was employed where IL-31 was directly conjugated to the surface. Immobilization was obtained by amine coupling 5 μg/mL IL-31 using N-hydroxysuccinimide (NHS)/1-Ethyl-3-(3-dimethylaminopropyl) carbodiimide (EDC) chemistry. Chips were quenched with ethanolamine and the affinity with which all candidate mAbs bound to the immobilized IL-31 was evaluated. All curves were fit to a 1:1 model. […] Results for affinity measurements are described herein.
FIG. 2 details the affinity of antibodies with CDRs derived from mouse origin using biacore. […] These observations confirm the correct sequence for both mouse antibodies and indicate conversion to the chimeric form results in antibodies with equivalent or higher affinity when compared to the mouse parent with the exception of the mouse:feline 15H05 chimera which lost some affinity to both IL-31 species as a result of its conversion to the chimeric form. […]

[6] = molecular target: T3, wildtype feline IL-31 protein …; assay: SPR (Biacore), IL-31 protein as surface capture
Description: as §1
(§2) Table 1 below describes the results for biacore analysis using multiple species of IL-31 protein as a surface capture.

[7] = molecular target: T4, equine IL-31 protein (Equine_IL31) (equine); assay: SPR (Biacore), IL-31 protein as surface capture
T4 construct: Recombinant equine IL-31
T4 chain: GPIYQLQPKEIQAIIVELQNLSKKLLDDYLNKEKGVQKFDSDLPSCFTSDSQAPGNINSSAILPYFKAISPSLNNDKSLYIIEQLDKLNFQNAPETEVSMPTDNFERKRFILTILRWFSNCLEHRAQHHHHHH
Description: as §1, §2

[8] = molecular target: T2, mutant feline IL-31 11E12 protein …; assay: SPR (Biacore), IL-31 protein as surface capture
Description: as §1, §2

[9] = molecular target: T3, wildtype feline IL-31 protein …; assay: cell-based or functional assay
[10] = molecular target: T5, mutant feline IL-31 15H05 protein (Feline_IL31_15H05_mutant) (feline); assay: Biacore, IL-31 protein as surface capture
T5 construct: also called feline 15H05 mutant; 15H05 IL-31 mutant
T5 chain: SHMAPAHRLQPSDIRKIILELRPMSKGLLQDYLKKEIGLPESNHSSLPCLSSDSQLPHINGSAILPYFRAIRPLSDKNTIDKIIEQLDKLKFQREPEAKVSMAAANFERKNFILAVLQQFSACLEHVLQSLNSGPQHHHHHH
Description: as §1, §2

[11] = molecular target: T1, canine IL-31 protein (Canine_IL31); assay: SPR (Biacore), IL-31 protein as surface capture
[12] = molecular target: T1, canine IL-31 protein (Canine_IL31)
[13] = molecular target: T1, canine IL-31 protein (Canine_IL31); assay: cell-based or functional assay
[14] = molecular target: T3, wildtype feline IL-31 protein …; assay: cell-based or functional assay
[15] = molecular target: T3, wildtype feline IL-31 protein …; assay: Biacore, feline IL-31 chip, mAb 100 nM, share of points within parent mean +/-3 SD; parameters: key: % of mutant data points within parent mAb mean ±3 SD
Source text: (§3) The mean response unit of four replicates of the parent mAb+/−3 standard deviations was used to generate parameters to define a threshold of response units comprising both the on- and off-rates antibody binding (FIG. 22). The percentage of data points for each mutant fell within this threshold was then used to define a “% similarity score” (FIG. 23).

[16] = molecular target: T3, wildtype feline IL-31 protein …; assay: as above; parameters: key: % of mutant data points within parent mAb mean ±3 SD
Source text: The region of an antibody responsible for antigen recognition represents the paratope. A paratope is created by a combination of amino acids in the complementarity determining regions (CDRs) of both the heavy and light chain variable regions. The binding between antibody and antigen is often mediated by side chains of CDR residues with side chains or carbohydrate moieties of the antigen. To help define critical side chains involved in antibody recognition alanine scanning mutagenesis was performed on each CDR residue in both the heavy and light chain. These mutants were then individually tested for the ability to bind feline IL-31 using the biacore and evaluated for inhibition of IL-31-mediated signaling in the FCWF-4 cell based assay.
as §3

[17] = molecular target: T3, wildtype feline IL-31 protein …; assay: cell-based or functional assay

Binder | IC50, inhibition of feline IL-31-induced STAT3 phosphorylation, canine DH82 cells [3] [µg/mL] | IC50, inhibition of feline IL-31-induced STAT3 phosphorylation, feline FCWF4 cells [3] [µg/mL] | Kd [4] [nM] | koff [4] [s⁻¹] | kon [4] [M⁻¹ s⁻¹] | Kd [6] [nM] | Kd [7] [nM] | Kd [8] [nM] | Inhibition of IL-31 induced pSTAT3 IC50 (µg/ml), Feline IL-31 on Feline FCWF-4 cells [9] [µg/ml] | binding result [10] | Kd [11] [nM] | Inhibition of IL-31 induced pSTAT3 IC50 (µg/ml), Canine IL-31 on Canine DH82 cells [13] [µg/ml] | other results
B1 | 4.4 | 3.45 | 0.13 | 5.06e-05 | 388000 | – | – | – | – | – | – | – | Kd [1]: 0.000127 nM; koff [1]: 8.7e-08 s⁻¹; kon [1]: 684000 M⁻¹ s⁻¹; binding result [2]: binds
B2 | > 100 | > 100 | – | – | – | – | – | – | – | – | – | – | binding result [5]: no binding
B3 | – | – | 0.474 | 2.18e-05 | 46000 | 0.625 | 0.625 | 17.2 | 8.85 | no binding | 0.00241 | 23 | IC50, inhibition of canine IL-31-induced STAT3 phosphorylation, feline FCWF4 cells [12]: 38.8 µg/mL
B4 | – | – | – | – | – | 0.575 | 0.575 | 19.5 | 4.53 | no binding | 0.00183 | 21.8 | % Inhibition Relative to Parent (pSTAT, FCWF-4 cells) [14]: 100%; Binding Similarity score [15]: 97; Binding Similarity score [16]: 97; % Inhibition Relative to Parent (pSTAT, FCWF-4 cells) [17]: 100%
